Data reported in patent publication US8008542B2, “Compositions, cells, and plants that include BKI1, a negative regulator of BRI1-mediated BR signaling” (The Salk Institute for Biological Studies, priority 2007, dated 2011).
Each block holds one molecule with its values, some of them ahead of it.

Key:
[1] = target: T1, endogenous BRI1 (Arabidopsis thaliana, UniProt O22476); test: Immunoprecipitation from BKI1-FLAG plants; type: binding; settings: immunoprecipitation with anti-FLAG
T1 construct: from tissue; host or cells: short-day grown seedlings of Col-0 transgenic plants expressing BKI1-FLAG
T1 sequence (O22476 24-1196): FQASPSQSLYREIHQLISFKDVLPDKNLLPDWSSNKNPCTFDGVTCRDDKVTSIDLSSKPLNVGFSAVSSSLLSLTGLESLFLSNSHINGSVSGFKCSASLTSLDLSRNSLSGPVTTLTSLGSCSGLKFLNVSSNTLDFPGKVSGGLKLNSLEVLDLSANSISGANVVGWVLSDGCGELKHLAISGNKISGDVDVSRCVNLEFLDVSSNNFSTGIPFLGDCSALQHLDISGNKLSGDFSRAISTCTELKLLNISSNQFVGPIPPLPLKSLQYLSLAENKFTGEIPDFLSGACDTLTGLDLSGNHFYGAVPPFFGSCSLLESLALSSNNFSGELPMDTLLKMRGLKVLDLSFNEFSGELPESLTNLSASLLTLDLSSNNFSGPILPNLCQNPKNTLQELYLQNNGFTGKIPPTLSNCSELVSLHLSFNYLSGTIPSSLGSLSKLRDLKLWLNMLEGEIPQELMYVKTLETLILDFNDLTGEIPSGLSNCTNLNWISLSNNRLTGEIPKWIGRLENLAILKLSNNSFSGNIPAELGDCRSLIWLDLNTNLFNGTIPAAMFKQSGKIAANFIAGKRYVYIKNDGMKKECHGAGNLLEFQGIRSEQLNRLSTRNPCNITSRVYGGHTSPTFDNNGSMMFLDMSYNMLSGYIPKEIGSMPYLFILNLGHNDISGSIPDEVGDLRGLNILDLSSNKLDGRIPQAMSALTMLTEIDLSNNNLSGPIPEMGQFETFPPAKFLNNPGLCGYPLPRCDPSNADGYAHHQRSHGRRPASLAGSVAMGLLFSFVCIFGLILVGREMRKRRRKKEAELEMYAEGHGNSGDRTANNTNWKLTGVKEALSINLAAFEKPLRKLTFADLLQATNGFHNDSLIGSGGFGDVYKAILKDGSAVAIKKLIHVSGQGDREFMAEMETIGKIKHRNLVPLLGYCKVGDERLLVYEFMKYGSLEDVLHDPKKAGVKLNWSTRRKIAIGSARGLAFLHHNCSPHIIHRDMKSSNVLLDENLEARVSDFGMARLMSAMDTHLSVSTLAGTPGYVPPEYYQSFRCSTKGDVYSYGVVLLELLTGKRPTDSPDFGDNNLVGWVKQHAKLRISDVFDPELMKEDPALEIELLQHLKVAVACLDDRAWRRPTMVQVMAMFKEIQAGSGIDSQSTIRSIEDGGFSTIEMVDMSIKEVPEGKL
Procedure: Short-day grown seedlings of Col-0 and transgenic plants containing BKI1-FLAG were ground to a fine powder in liquid nitrogen, and solubilized with 2× extraction buffer (100 mM Tris-HCl pH 7.5, 300 mM NaCl, 2 mM EDTA, 1% Triton, 10% glycerol, and protease inhibitor). The extracts were centrifuged at 5,000×g for 10 min, and the resultant supernatant was then spun at 100,000×g for 90 min at 4° C. to remove membrane fractions. The supernatant was incubated with pre-washed anti-FLAG M2 agarose gel (Sigma) for three hours at 4° C., and the agarose gel was washed five times with TBS Buffer containing 0.02% Tween 20. The immunoprecipitates were eluted with 1×SDS sample buffer by boiling for 5 min, separated on a 4-20% Novex Tris-Glycine SDS-PAGE gel (Invitrogen), transferred to PVDF membrane (Millipore), and detected with either anti-BRI1 antibody for endogenous BRI1 or monoclonal anti-FLAG M2 (Sigma) for BKI1-FLAG. Signals were visualized using the Odyssey Infrared Imaging system (LI-COR Biosciences Inc.).

[2] = target: T2, interaction between the kinase domains of BRI1 and BAK1 (Arabidopsis thaliana, UniProt O22476); test: GST pull-down of 35S-BRI1-KD-HIS by GST-BAK1-KD in vitro; type: binding; settings: 10 μM of MBP-BKI1, five replicates, p=0.000013
T2 construct: His (C); made in house; host or cells: BRI1-KD-HIS: TNT T7 coupled reticulocyte lysate (Promega)
T2 sequence (O22476 883-1158 limits assumed): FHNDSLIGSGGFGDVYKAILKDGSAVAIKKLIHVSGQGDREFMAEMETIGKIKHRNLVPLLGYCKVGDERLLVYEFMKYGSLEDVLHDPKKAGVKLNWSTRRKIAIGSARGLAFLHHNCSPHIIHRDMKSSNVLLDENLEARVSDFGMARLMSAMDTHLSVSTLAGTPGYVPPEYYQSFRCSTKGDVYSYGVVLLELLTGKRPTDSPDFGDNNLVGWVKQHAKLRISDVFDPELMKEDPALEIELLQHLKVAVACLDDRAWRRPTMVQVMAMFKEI
Procedure: Seedlings were grown on MS medium containing 1 μM of BRZ220. The time of BL treatment is indicated. Top panels: BKI1-YFP; Lower panels: myriBKI1-YFP. […] Immunoblots with anti-GFP show levels of myriBKI1-YFP and BKI1-YFP. Bottom band: loading control. […] The total ^35S-Met labeled BRI1-KD-HIS co-precipitated by GST-BAK1-KD was defined as “1”. Five replicates were conducted. Error bars indicate standard error. 1, GST-BAK1-KD±35S-BRI1-KD-HIS; 2, GST-BAK1-KD+35S-BRI1-KD-HIS+10 μM of MBP; 3, GST-BAK1-KD+35S-BRI1-KD-HIS+10 μM of MBP-BKI1. […] Without BL, BRI1 kinase is kept in a basal state by both its own carboxyl terminal domain and by an interaction with BKI1. Brassinosteroid binding to the extracellular domain of BRI1 induces a conformational change of the kinase domain, leading to the phosphorylation of the C-terminal domain of BRI1 and BKI1, the dissociation of BKI1 from the plasma membrane, and the release of autoinhibition of BRI1. These events lead to the full activation of BRI1 and its association with BAK1 or other substrates. Plasma membrane-dissociated BKI1 may also regulate other unknown components in the brassinosteroid signaling cascade. BSU1 is a nuclear serine/threonine phosphatase involved in the dephosphorylation of BES1 (27). […]

interaction with endogenous BRI1 in vivo [1]: interacted
B1: BKI1-FLAG: BKI1 with three copies of FLAG fused at the C-terminal end (protein)
chain: METNLQQVKNSSQTFSEKQNPKQEASPSPISSTCSSPSHDFSFTISLQPLSSSSKHISPTLRSPSKTTSSYQQTDPFAVDLSPADEIFFHGHLLPLHLLSHLPVSPRTSTGSYNDGFTLPVKDILPDQPTNNNNNTENAITNISTEAKDDNTEDKAEGEIRVKTKPIKSFSLFGLSKWRKGFESNEREQEQQQQKIKKPMSLDLSHAVKKYIRMLFQKRGNGTQFWNRRQTSSYSFSSSLMGPNGNSKTMINGSYNKRDLIRGRRGELFSAPASMRTSPTNSGHLRVSTAGLSSSSGSTSSSSSDSTMEELQAAIQAAIAHCKNSSAVDRDDKVKDSDYKDDDDKVKLDYKDDDDKVKLDYKDDDDKVKL

inhibition of the interaction between the kinase domains of BRI1 and BAK1 [2]: approximately 62%
B2: MBP-BKI1: BKI1-maltose binding protein fusion (N-terminal MBP) (protein)
chain: METNLQQVKNSSQTFSEKQNPKQEASPSPISSTCSSPSHDFSFTISLQPLSSSSKHISPTLRSPSKTTSSYQQTDPFAVDLSPADEIFFHGHLLPLHLLSHLPVSPRTSTGSYNDGFTLPVKDILPDQPTNNNNNTENAITNISTEAKDDNTEDKAEGEIRVKTKPIKSFSLFGLSKWRKGFESNEREQEQQQQKIKKPMSLDLSHAVKKYIRMLFQKRGNGTQFWNRRQTSSYSFSSSLMGPNGNSKTMINGSYNKRDLIRGRRGELFSAPASMRTSPTNSGHLRVSTAGLSSSSGSTSSSSSDSTMEELQAAIQAAIAHCKNSSAVDRDDKVKDS
modifications: left off: large carriers
